Assay results: patent US20230124851A1 (INHIBRX LNC, published 2023)

T1: human B7H3 (CD276) on the cell surface (human, UniProt Q5ZPR3 29-534)
T1 construct: B7H3 on A375 and other B7H3-positive or transfected cells
T1 sequence: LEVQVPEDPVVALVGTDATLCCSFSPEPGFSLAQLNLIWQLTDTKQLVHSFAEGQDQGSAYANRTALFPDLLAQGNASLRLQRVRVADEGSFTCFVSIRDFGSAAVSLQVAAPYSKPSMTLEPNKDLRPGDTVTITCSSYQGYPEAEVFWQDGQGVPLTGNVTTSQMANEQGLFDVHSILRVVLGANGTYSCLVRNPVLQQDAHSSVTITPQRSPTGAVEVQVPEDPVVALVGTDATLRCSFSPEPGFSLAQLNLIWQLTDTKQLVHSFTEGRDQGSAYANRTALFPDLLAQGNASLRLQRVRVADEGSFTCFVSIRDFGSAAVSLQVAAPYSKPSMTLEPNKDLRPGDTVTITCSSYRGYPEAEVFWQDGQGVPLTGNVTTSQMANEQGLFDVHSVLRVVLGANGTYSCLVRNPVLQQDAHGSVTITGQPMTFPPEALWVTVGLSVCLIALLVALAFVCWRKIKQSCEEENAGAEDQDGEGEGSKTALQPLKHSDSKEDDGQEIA


Legend:
[1] = target: T1, human B7H3 (CD276) on the cell surface; test: flow cytometry on A375 cells (B7H3+), anti-human Fc secondary
Method: (§1) Binding of exemplary multispecific constructs containing an antigen-binding domain directed against B7H3 were assessed for binding to B7H3 positive A375 tumor cells or primary T-cells. The constructs were generated containing antigen-binding domain(s) that were either sdAbs or a FABs, and that were positioned either only N-terminal to the Fc or both N-terminal to the Fc and C-terminal to the anti-CD3 binding domain (see FIGS. 30A and 30C and Table E5). Among the various formats of constructs tested included: sdAb-Fc-dsFV-sdAb (cx3072, cx5952) sdAb-Fc-FV (cx6079), sdAb-Fc-dsFV (cs6080, cx6081), MAB-FV (cx5067) and MAB-dsFV (cx6083, cx6084), where the FV represents the anti-CD3 binding domain composed of VH and VL domain pairs and “ds” notes disulfide stabilized via an engineered interdomain disulfide bond.
(§2) Binding was assessed as described above via flow cytometry using a fluorophore-conjugated anti-human Fc secondary antibody. cx3072 bound to A375 cells with high affinity (FIG. 31A) but not to isolated T-cells (FIG. 31B). […] The B7H3 -targeting sdAb containing constructs (cx5952, cx6079, cx6080, and cx6081) bound to B7H3 positive cells with similar affinities (depicted in FIG. 31E), with cx5952 displaying higher maximal binding. cx6079, cx6080 and cx6081 contain two identical B7H3-targeting sdAbs, whereas cx5952, and cx3072 contain two distinct B7H3-targeting sdAb that bind different epitopes. The MAB-FV, cx5067, contains two identical B7H3-targeting FAB domains.

[2] = target: T2, CD3 on the surface of human T cells (human, UniProt P07766 23-207); test: flow cytometry on primary human T cells, anti-human Fc secondary
T2 construct: whole, on cells; Part of the CD3/TCR complex on cells; also called CD3 epsilon
Method: as §1, §2

[3] = target: T2, CD3 on the surface of human T cells; test: flow cytometry on primary human T cells; column head 'Affinity CD3'
Method: (§3) Binding of exemplary B7H3-targeting constrained CD3 engaging constructs set forth in Table E3 to CD3 on the surface of primary T cells or B7H3-expressing cells (A375) was assessed by flow cytometry. The T cells were primary T-cells that were negatively enriched from PBMCs isolated from healthy human donor peripheral blood leukopaks. Bound construct was detected with fluorophore-conjugated secondary antibodies specific for the human Fc (anti-human IgG APC secondary antibody) and binding was measured by flow cytometry. Cells incubated with secondary antibody only served as negative controls. Binding was compared to Dual-affinity Re-targeting Antibody (DART)-monomeric Fc format targeting B7H3 and CD3 (DART-Fc B7H3xCD3; see e.g. WO2017030926A1).
(§4) Table E4 summarizes the affinity of exemplary molecules for B7H3 or CD3, as determined from flow cytometry, in these studies.

[4] = target: T1, human B7H3 (CD276) on the cell surface; test: flow cytometry titration on A375 cells (B7H3+); column head 'Affinity B7H3' (apparent)
Method: as §3, §4

T2 sequence (P07766 23-207): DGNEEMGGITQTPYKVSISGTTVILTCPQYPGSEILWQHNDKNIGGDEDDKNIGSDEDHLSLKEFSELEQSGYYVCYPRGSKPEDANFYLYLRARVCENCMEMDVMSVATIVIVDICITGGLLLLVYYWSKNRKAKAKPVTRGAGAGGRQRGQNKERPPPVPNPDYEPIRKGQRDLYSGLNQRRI

Row | binding result [1] | binding result [2] | Kd [3] | Kd [4] | Binder
1 | binds | no binding |  |  | cx5952 (bispecific antibody, also called sdAb-Fc-dsFV-sdAb) chain 1: EVQLVESGGGEVQPGGSLRLSCAASGFSFSSNVMMWVRQAPGKGLEWVSTIYSSGTGTFYAESVKGRFTISRDNAKNTLYLQMSSLRPEDTAVYYCATSGPVRGWGPRSQGTLVTVKPPGGGGDKTHTCPPCPAPGGPSVFLFPPKPKDTLMISRTPEVTCVVVDVSHEDPEVKFNWYVDGVEVHNAKTKPREEQYNSTYRVVSVLTVLHQDWLNGKEYKCKVSNKALPAPIEKTISKAKGQPREPQVYTLPPCRDELTKNQVSLWCLVKGFYPSDIAVEWESNGQPENNYKTTPPVLDSDGSFFLYSKLTVDKSRWQQGNVFSCSVMHEALHNHYTQKSLSLSPGGGGGGSGGGGGSGGGGGSEVQLVESGGGLVQPGGSLRLSCAASGFTFNTYAMNWVRQAPGKCLEWVARIRSKYNNYATYYADSVKGRFTISRDDAKNTLYLQMSSLRAEDTAVYYCVRHGNFGNSYVSWFAYWGQGTLVTVKPGGGGEVQLVESGGGEVQPGGSLRLSCAASGFTFSSYHMSWFRQAPGKQRELVATSHHGGTTNYAGSVKGRFTISRDNAKNTVYLQMNTLRAEDTAVYYCKADHGYQGRGYWGQGTLVTVKP chain 2: DKTHTCPPCPAPGGPSVFLFPPKPKDTLMISRTPEVTCVVVDVSHEDPEVKFNWYVDGVEVHNAKTKPREEQYNSTYRVVSVLTVLHQDWLNGKEYKCKVSNKALPAPIEKTISKAKGQPREPQVCTLPPSRDELTKNQVSLSCAVKGFYPSDIAVEWESNGQPENNYKTTPPVLDSDGSFFLVSKLTVDKSRWQQGNVFSCSVMHEALHNRYTQKSLSLSPGGGGGGSGGGGGSGGGGGSQAVVTQEPSLTVSPGGTVTLTCGSSTGAVTTSNYANWVQQKPGQAFRGLIGGTNKRAPGVPARFSGSLLGGKAALTISGAQPEDEADYYCALWYSNHWVFGCGTKLEIK
2 | binds | no binding |  |  | cx6079 (bispecific antibody, also called sdAb-Fc-FV) chain 1: EVQLVESGGGEVQPGGSLRLSCAASGFSFSSNVMMWVRQAPGKGLEWVSTIYSSGTGTFYAESVKGRFTISRDNAKNTLYLQMSSLRPEDTAVYYCATSGPVRGWGPRSQGTLVTVKPPGGGGDKTHTCPPCPAPPVAGPSVFLFPPKPKDTLMISRTPEVTCVVVDVKHEDPEVKFNWYVDGVEVHNAKTKPREEEYNSTYRVVSVLTVLHQDWLNGKEYKCKVSNKALPAPIEKTISKAKGQPREPQVYTLPPSREEMTKNQVSLTCDVSGFYPSDIAVEWESDGQPENNYKTTPPVLDSDGSFFLYSKLTVDKSRWEQGDVFSCSVMHEALHNHYTQKSLSLSPGKGGGGSGGGGSGGGGSEVQLVESGGGLVQPGGSLRLSCAASGFTFSTYAMNWVRQAPGKGLEWVGRIRSKYNNYATYYADSVKGRFTISRDDSKNTLYLQMNSLRAEDTAVYYCVRHGNFGDSYVSWFAYWGQGTLVTVSS chain 2: EVQLVESGGGEVQPGGSLRLSCAASGFSFSSNVMMWVRQAPGKGLEWVSTIYSSGTGTFYAESVKGRFTISRDNAKNTLYLQMSSLRPEDTAVYYCATSGPVRGWGPRSQGTLVTVKPPGGGGDKTHTCPPCPAPPVAGPSVFLFPPKPKDTLMISRTPEVTCVVVDVKHEDPEVKFNWYVDGVEVHNAKTKPREEQYNSTYRVVSVLTVLHQDWLNGKEYKCKVSNKALPAPIEKTISKAKGQPREPQVYTLPPSREQMTKNQVKLTCLVKGFYPSDIAVEWESNGQPENNYKTTPPVLDSDGSFFLYSKLTVDKSRWQQGNVFSCSVMHEALHNHYTQKSLSLSPGKGGGGSGGGGSGGGGSQAVVTQEPSLTVSPGGTVTLTCGSSTGAVTTSNYANWVQQKPGKSPRGLIGGTNKRAPGVPARFSGSLLGGKAALTISGAQPEDEADYYCALWYSNHWVFGGGTKLTVL
3 |  |  | > 200 nM | 0.477 nM | cx3243 (bispecific antibody, not shown: a dimerising Fc or GST, chain 2 ends in the 4-1BB sdAb RH3v5-1) chain 1: EVQLVESGGGEVQPGGSLRLSCAASGSTFSSYHMSWFRQAPGKQREPVATSHHGGTTNYAGSVKGRFTISRDNAKNTVYLQMNTLRAEDTAVYYCKADHGYQGRGYWGQGTLVTVKPGGGGGSGGGGGSGGGGGSEVQLVESGGGLVQPGGSLRLSCAASGFTFNTYAMNWVRQAPGKCLEWVARIRSKYNNYATYYADSVKGRFTISRDDAKNTLYLQMSSLRAEDTAVYYCVRHGNFGNSYVSWFAYWGQGTLVTVKPEVQLVESGGGEVQPGGSLRLSCAPSERTFSTYTMGWFRQAPGKEREFVAVVNWGGGSKYYAESVKGRFTISRDNAKNTVYLQMSSLRAEDTAVYYCAAGGAYSGPYYDTRQYTYWGQGTLVTVKP chain 2: GGGGGSGGGGGSGGGGGSQAVVTQEPSLTVSPGGTVTLTCGSSTGAVTTSNYANWVQQKPGQAFRGLIGGTNKRAPGVPARFSGSLLGGKAALTISGAQPEDEADYYCALWYSNHWVFGCGTKLTVLEVQLLESGGGEVQPGGSLRLSCAASGFSFSINAMGWYRQAPGKRREFVAAIESGRNTVYAESVKGRFTISRDNAKNTVYLQMSSLRAEDTAVYYCGLLKGNRVVSPSVAYWGQGTLVTVKP
4 |  |  | > 200 nM | 0.395 nM | cx3855 (bispecific antibody, chain 2 ends in the 4-1BB sdAb RH3v5-1; Printed composition is the same as cx4904) chain 1: EVQLVESGGGEVQPGGSLRLSCAASGSTFSSYHMSWFRQAPGKQREPVATSHHGGTTNYAGSVKGRFTISRDNAKNTVYLQMNTLRAEDTAVYYCKADHGYQGRGYWGQGTLVTVKPDKTHTCPPCPAPGGPSVFLFPPKPKDTLMISRTPEVTCVVVDVSHEDPEVKFNWYVDGVEVHNAKTKPREEQYNSTYRVVSVLTVLHQDWLNGKEYKCKVSNKALPAPIEKTISKAKGQPREPQVYTLPPCRDELTKNQVSLWCLVKGFYPSDIAVEWESNGQPENNYKTTPPVLDSDGSFFLYSKLTVDKSRWQQGNVFSCSVMHEALHNHYTQKSLSLSPTGGSGGGGIEPDIGGSGGSEVQLVESGGGLVQPGGSLRLSCAASGFTFNTYAMNWVRQAPGKCLEWVARIRSKYNNYATYYADSVKGRFTISRDDAKNTLYLQMSSLRAEDTAVYYCVRHGNFGNSYVSWFAYWGQGTLVTVKPEVQLVESGGGEVQPGGSLRLSCAASGSTFSSYHMSWFRQAPGKQREPVATSHHGGTTNYAGSVKGRFTISRDNAKNTVYLQMNTLRAEDTAVYYCKADHGYQGRGYWGQGTLVTVKP chain 2: DKTHTCPPCPAPGGPSVFLFPPKPKDTLMISRTPEVTCVVVDVSHEDPEVKFNWYVDGVEVHNAKTKPREEQYNSTYRVVSVLTVLHQDWLNGKEYKCKVSNKALPAPIEKTISKAKGQPREPQVCTLPPSRDELTKNQVSLSCAVKGFYPSDIAVEWESNGQPENNYKTTPPVLDSDGSFFLVSKLTVDKSRWQQGNVFSCSVMHEALHNRYTQKSLSLSPTGGSGGGGIEPDIGGSGGSQAVVTQEPSLTVSPGGTVTLTCGSSTGAVTTSNYANWVQQKPGQAFRGLIGGTNKRAPGVPARFSGSLLGGKAALTISGAQPEDEADYYCALWYSNHWVFGCGTKLTVLEVQLLESGGGEVQPGGSLRLSCAASGFSFSINAMGWYRQAPGKRREFVAAIESGRNTVYAESVKGRFTISRDNAKNTVYLQMSSLRAEDTAVYYCGLLKGNRVVSPSVAYWGQGTLVTVKP
